Data set [1] deals with the molecule itself. The data set can be described thus: negative-stain electron microscopy; pre-assembled filaments (CcMreB 0.25 mg/ml, V118E 0.13 mg/ml) in 12.5 mM Tris-HCl 7.5, 2 mM ATP, 4 mM MgCl2 on a monolayer of E. coli total lipid extract, 2% uranyl acetate; 2D averaging.
Data set [2] concerns the molecule itself. Description: crystal structure; C. crescentus MreB constructs crystallised at 10-30 mg/ml, empty or with ADP or AMPPNP, no inhibitor; filament or monomer state read from the crystal packing.
Data set [3] concerns the molecule itself. The description is as above. This is another data set of the same source.
Data set [4] concerns the molecule itself. The data set can be described thus: cryo-electron microscopy and tomography; MreB 1 mg/ml with 1 mg/ml liposomes (E. coli total lipid extract) or lipid tubes (plus 30% C24:1 β-D galactosyl ceramide), 2 mM ATP, 4 mM MgCl2; CcMreB in 12.5 mM Tris-HCl 7.5, TmMreB in 100 mM Tris-HCl 7.5, 200 mM NaCl; 2D and subtomogram averaging.

Numbering of substitutions follows the chain as printed. Names may count otherwise.

B1: Full-length, untagged MreB from C. crescentus (CcMreB) (natural protein, Caulobacter crescentus, UniProt A0A0H3C7V4 1-347, looked up)
chain: MFSSLFGVISNDIAIDLGTANTLIYQKGKGIVLNEPSVVALRNVGGRKVVHAVGIEAKQMLGRTPGHMEAIRPMRDGVIADFEVAEEMIKYFIRKVHNRKGFVNPKVIVCVPSGATAVERRAINDSCLNAGARRVGLIDEPMAAAIGAGLPIHEPTGSMVVDIGGGTTEVAVLSLSGIVYSRSVRVGGDKMDEAIISYMRRHHNLLIGETTAERIKKEIGTARAPADGEGLSIDVKGRDLMQGVPREVRISEKQAADALAEPVGQIVEAVKVALEATPPELASDIADKGIMLTGGGALLRGLDAEIRDHTGLPVTVADDPLSCVALGCGKVLEHPKWMKGVLESTLA
notes: MreB, Caulobacter crescentus, GenBank ACL95077.1, M1-A347; Forms filaments (double protofilaments); number of copies not defined; also called Caulobacter MreB; pFE403 (plasmid); source: E. coli C41, purified (HisTrap, elution by SUMO protease, GST column, S300HR size exclusion)
Consider B1, for which the binding result in data set [1] is “binds”.

B2: CcMreB-V118E (inter-protofilament mutant V118E in full-length CcMreB) (natural protein, Caulobacter crescentus, UniProt A0A0H3C7V4 1-347, looked up)
chain: B1 chain with V118E
notes: MreB, Caulobacter crescentus, GenBank ACL95077.1, full length with V118E; also called pFE542 (plasmid); source: E. coli C41, purified (HisTrap, elution by SUMO protease, GST column, S300HR size exclusion); not shown: His-SUMO, N-terminal, cleaved
For the protein B2, the binding result in data set [1] was “binds”.

B3: ΔCcMreBh (M-I9-CcMreB-A347-GSHHHHHH) (domain or fragment, Caulobacter crescentus)
chain: MISNDIAIDLGTANTLIYQKGKGIVLNEPSVVALRNVGGRKVVHAVGIEAKQMLGRTPGHMEAIRPMRDGVIADFEVAEEMIKYFIRKVHNRKGFVNPKVIVCVPSGATAVERRAINDSCLNAGARRVGLIDEPMAAAIGAGLPIHEPTGSMVVDIGGGTTEVAVLSLSGIVYSRSVRVGGDKMDEAIISYMRRHHNLLIGETTAERIKKEIGTARAPADGEGLSIDVKGRDLMQGVPREVRISEKQAADALAEPVGQIVEAVKVALEATPPELASDIADKGIMLTGGGALLRGLDAEIRDHTGLPVTVADDPLSCVALGCGKVLEHPKWMKGVLESTLA
notes: start methionine placed before I9; MreB, Caulobacter crescentus, GenBank ACL95077.1, I9-A347 (N-terminal amphipathic helix deleted); Electrospray mass 36,916 Da (36,911 Da expected); also called CCM2; source: E. coli C41(DE3), purified (HisTrap, Sephacryl S300HR)
As to B3, the binding result in data set [2] is recorded as “binds”.

B4: ΔCcMreBdh (M-I9-CcMreB(F102S, V103G)-A347-GSHHHHHH) (domain or fragment, Caulobacter crescentus)
chain: B3 chain with F95S, V96G
notes: start methionine placed before I9; MreB, Caulobacter crescentus, GenBank ACL95077.1, I9-A347, hydrophobic loop mutated (F102S, V103G); Electrospray mass 36,813 Da (36,809 Da expected); also called pFE397 (plasmid); source: E. coli C41(DE3), purified (HisTrap, Sephacryl S300HR)
Consider B4, for which, in data set [3], the binding result is given as “binds”.

B5: Full-length untagged Thermotoga maritima MreB1 (TmMreB) (natural protein, UniProt Q9WZ57 1-336, looked up)
chain: MLRKDIGIDLGTANTLVFLRGKGIVVNEPSVIAIDSTTGEILKVGLEAKNMIGKTPATIKAIRPMRDGVIADYTVALVMLRYFINKAKGGMNLFKPRVVIGVPIGITDVERRAILDAGLEAGASKVFLIEEPMAAAIGSNLNVEEPSGNMVVDIGGGTTEVAVISLGSIVTWESIRIAGDEMDEAIVQYVRETYRVAIGERTAERVKIEIGNVFPSKENDELETTVSGIDLSTGLPRKLTLKGGEVREALRSVVVAIVESVRTTLEKTPPELVSDIIERGIFLTGGGSLLRGLDTLLQKETGISVIRSEEPLTAVAKGAGMVLDKVNILKKLQGAG
notes: MreB1, Thermotoga maritima, GenBank AAD35673.1, M1-G336; called non-tagged / untagged; also called pFE349 (plasmid); source: expressed as an Intein-CBD-tagged fusion from plasmid pFE349 and purified as described previously (Salje et al., 2011)
Take B5: the binding result in data set [4] is “binds”.

For the origin of these results see publication PMC4051119, “Bacterial actin MreB forms antiparallel double filaments” (eLife, 2014).
